The values below come from patent US20150361150A1.

For this test, the target named is tyrosine-protein kinase KIT on the surface of human KIT+ GIST cell lines (GIST 882, GIST 48) (human) (UniProt P10721). Briefly: cell-based or functional assay.
Chain of UniProt P10721 (P10721 26-976): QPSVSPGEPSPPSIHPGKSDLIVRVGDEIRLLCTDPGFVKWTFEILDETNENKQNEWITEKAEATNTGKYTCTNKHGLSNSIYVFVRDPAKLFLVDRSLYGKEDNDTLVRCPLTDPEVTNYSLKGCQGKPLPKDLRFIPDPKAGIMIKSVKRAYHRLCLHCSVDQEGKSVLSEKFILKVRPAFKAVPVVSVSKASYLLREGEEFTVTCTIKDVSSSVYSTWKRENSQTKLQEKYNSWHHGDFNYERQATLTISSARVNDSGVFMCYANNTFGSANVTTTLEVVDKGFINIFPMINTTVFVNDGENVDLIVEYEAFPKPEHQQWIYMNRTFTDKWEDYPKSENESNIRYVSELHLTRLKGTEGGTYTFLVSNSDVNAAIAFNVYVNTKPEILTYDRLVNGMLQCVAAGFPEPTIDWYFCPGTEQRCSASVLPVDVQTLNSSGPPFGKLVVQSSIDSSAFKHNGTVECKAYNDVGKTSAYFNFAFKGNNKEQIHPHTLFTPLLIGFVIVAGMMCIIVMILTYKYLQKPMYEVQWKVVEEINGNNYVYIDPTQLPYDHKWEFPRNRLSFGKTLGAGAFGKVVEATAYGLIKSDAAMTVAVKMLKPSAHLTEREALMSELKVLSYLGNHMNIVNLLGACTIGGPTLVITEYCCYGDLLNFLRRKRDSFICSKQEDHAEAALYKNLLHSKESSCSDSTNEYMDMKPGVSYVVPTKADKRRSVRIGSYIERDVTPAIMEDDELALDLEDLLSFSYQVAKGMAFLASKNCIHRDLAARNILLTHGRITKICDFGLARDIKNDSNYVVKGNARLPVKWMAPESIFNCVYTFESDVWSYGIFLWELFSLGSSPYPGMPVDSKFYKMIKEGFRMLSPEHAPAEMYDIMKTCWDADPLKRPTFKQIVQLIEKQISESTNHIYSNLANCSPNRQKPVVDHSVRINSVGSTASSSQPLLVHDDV

With “2^nd generation anti-KIT chimeric immune receptor (extracellular domain of KIT ligand fused to CD28 and CD3 zeta), expressed on human designer T cells”, the percent of designer T cells divided (CFSE dilution) in co-culture with KIT+ GIST882 cells came out at 47%. In turn, “1^st generation anti-KIT chimeric immune receptor (extracellular domain of KIT ligand fused to the CD3 zeta chain), expressed on human designer T cells” displayed a percent of designer T cells divided (CFSE dilution) in co-culture with KIT+ GIST882 cells of 39%.
